Source: paper PMC8384158

B1: TAP–Bag-1S [human] / PDIA3 [human (endogenous in MCF-7 and MCF-12A)] (parent)
chain 1: MNRSQEVTRDEESTRSEEVTREEMAAAGLTVTVTHSNEKHDLHVTSQQGSSEPVVQDLAQVVEEVIGVPQSFQKLIFKGKSLKEMETPLSALGIQDGCRVMLIGKKNSPQEEVELKKLKHLEKSVEKIADQLEELNKELTGIQQGFLPKDLQAEALCKLDRRVKATIEQFMKILEEIDTLILPENFKDSRLKRKGLVKKVQAFLAECDTVEQNICQETERLQSTNFALAE
chain 2: SDVLELTDDNFESRISDTGSAGLMLVEFFAPWCGHCKRLAPEYEAAATRLKGIVPLAKVDCTANTNTCNKYGVSGYPTLKIFRDGEEAGAYDGPRTADGIVSHLKKQAGPASVPLRTEEEFKKFISDKDASIVGFFDDSFSEAHSEFLKAASNLRDNYRFAHTNVESLVNEYDDNGEGIILFRPSHLTNKFEDKTVAYTEQKMTSGKIKKFIQENIFGICPHMTEDNKDLIQGKDLLIAYYDVDYEKNAKGSNYWRNRVMMVAKKFLDAGHKLNFAVASRKTFSHELSDFGLESTAGEIPVVAIRTAKGEKFVMQEEFSRDGKALERFLQDYFDGNLKRYLKSEPIPESNDGPVKVVVAENFDEIVNNENKDVLIEFYAPWCGHCKNLEPKYKELGEKLSKDPNIVIAKMDATANDVPSPYEVRGFPTIYFSPANKKLNPKKYEGGRELSDFISYLQREATNPPVIQEEKPKKKKKAQEDL
B2: TAP–Bag-1S [human] / Calnexin [human (endogenous in MCF-7 and MCF-12A)] (parent)
chain 1: B1 chain 1
chain 2: HDGHDDDVIDIEDDLDDVIEEVEDSKPDTTAPPSSPKVTYKAPVPTGEVYFADSFDRGTLSGWILSKAKKDDTDDEIAKYDGKWEVEEMKESKLPGDKGLVLMSRAKHHAISAKLNKPFLFDTKPLIVQYEVNFQNGIECGGAYVKLLSKTPELNLDQFHDKTPYTIMFGPDKCGEDYKLHFIFRHKNPKTGIYEEKHAKRPDADLKTYFTDKKTHLYTLILNPDNSFEILVDQSVVNSGNLLNDMTPPVNPSREIEDPEDRKPEDWDERPKIPDPEAVKPDDWDEDAPAKIPDEEATKPEGWLDDEPEYVPDPDAEKPEDWDEDMDGEWEAPQIANPRCESAPGCGVWQRPVIDNPNYKGKWKPPMIDNPSYQGIWKPRKIPNPDFFEDLEPFRMTPFSAIGLELWSMTSDIFFDNFIICADRRIVDDWANDGWGLKKAADGAAEPGVVGQMIEAAEERPWLWVVYILTVALPVFLVILFCCSGKKQTSGMEYKKTDAPQPDVKEEEEEKEEEKDKGDEEEEGEEKLEEKQKSDAEEDGGTVSQEEEDRKPKAEEDEILNRSPRNRKPRRE

Variants of: B1
Assay: TAP pull-down interactome analysis (LC-MS/MS)
Settings: with PDIA3 [human (endogenous in MCF-7 and MCF-12A)]; MCF-7 cells; read off a plot

| screen value | Variant |
| --- | --- |
| -0.07 log2 | chain 1 MNRSQEVTRDEESTRSEEVTREEMAAAGLTVTVTHSNEKHDLHVTSQQGSSEPVVQDLAQVVEEVIGVPQSFQKLIFKGKSLKEMETPLSALGIQDGCRVMLKGKKNSPQEEVELKKLKHLEKSVEKIADQLEELNKELTGIQQGFLPKDLQAEALCKLDRRVKATIEQFMKILEEIDTLILPENFKDSRLKRKGLVKKVQAFLAECDTVEQNICQETERLQSTNFALAE [chain 1 I103K] |
| -0.62 log2 | chain 1 MNRSQEVTRDEESTRSEEVTREEMAAAGLTVTVTHSNEKHDLHVTSQQGSSEPVVQDLAQVVEEVIGVPQSFQKLIFKGKSLKEMETPLSALGIQDGCRVMLIGKKNSPQEEVELKKLKHLEKSVEKIADQLEELNKELTGIQQGFLPKDLQAEALCKLDREVKATIEQFMKILEEIDTLILPENFKDSRLKRKGLVKKVQAFLAECDTVEQNICQETERLQSTNFALAE [chain 1 R162E] |
| -1.5 log2 | chain 1 MNRSQEVTRDEESTRSEEVTREEMAAAGLTVTVTHSNEKHDLHVTSQQGSSEPVVQDLAQVVEEVIGVPQSFQKLIFKGKSLKEMETPLSALGIQDGCRVMLIGKKNSPQEEVELKKLKHLEKSVEKIADQLEELNKELTGIQQGFLPKDLQAEALCKLDDRVKATIEQFMKILEEIDTLILPENFKDSRLKRKGLVKKVQAFLAECDTVEQNICQETERLQSTNFALAE [chain 1 R161D] |
| -0.1 log2 | chain 1 MNRSQEVTRDEESTRSEEVTREEMAAAGLTVTVTHSNEKHDLHVTSQQGSSEPVVQDLAQVVEEVIGVPQSFQKLIFKGKSLKEMETPLSALGIQDGCRVMLIGKKNSPQEEVELKKLKHLEKSVEKIADQLEELNKELTGIQQGFLPKDLQAEALCKLDRRVKATIEQFMKILEEIDTLILPENFKDSRLKDKGLVKKVQAFLAECDTVEQNICQETERLQSTNFALAE [chain 1 R193D] |

Variants of: B2
Assay: TAP pull-down interactome analysis (LC-MS/MS)
Settings: with Calnexin [human (endogenous in MCF-7 and MCF-12A)]; MCF-7 cells; read off a plot

| Variant | screen value |
| --- | --- |
| chain 1 MNRSQEVTRDEESTRSEEVTREEMAAAGLTVTVTHSNEKHDLHVTSQQGSSEPVVQDLAQVVEEVIGVPQSFQKLIFKGKSLKEMETPLSALGIQDGCRVMLKGKKNSPQEEVELKKLKHLEKSVEKIADQLEELNKELTGIQQGFLPKDLQAEALCKLDRRVKATIEQFMKILEEIDTLILPENFKDSRLKRKGLVKKVQAFLAECDTVEQNICQETERLQSTNFALAE [chain 1 I103K] | -1.1 log2 |
| chain 1 MNRSQEVTRDEESTRSEEVTREEMAAAGLTVTVTHSNEKHDLHVTSQQGSSEPVVQDLAQVVEEVIGVPQSFQKLIFKGKSLKEMETPLSALGIQDGCRVMLIGKKNSPQEEVELKKLKHLEKSVEKIADQLEELNKELTGIQQGFLPKDLQAEALCKLDDRVKATIEQFMKILEEIDTLILPENFKDSRLKRKGLVKKVQAFLAECDTVEQNICQETERLQSTNFALAE [chain 1 R161D] | -1.6 log2 |

More lines, now with the values ahead:

| screen value | Variant |
| --- | --- |
| -1.1 log2 | chain 1 MNRSQEVTRDEESTRSEEVTREEMAAAGLTVTVTHSNEKHDLHVTSQQGSSEPVVQDLAQVVEEVIGVPQSFQKLIFKGKSLKEMETPLSALGIQDGCRVMLIGKKNSPQEEVELKKLKHLEKSVEKIADQLEELNKELTGIQQGFLPKDLQAEALCKLDREVKATIEQFMKILEEIDTLILPENFKDSRLKRKGLVKKVQAFLAECDTVEQNICQETERLQSTNFALAE [chain 1 R162E] |
| -0.55 log2 | chain 1 MNRSQEVTRDEESTRSEEVTREEMAAAGLTVTVTHSNEKHDLHVTSQQGSSEPVVQDLAQVVEEVIGVPQSFQKLIFKGKSLKEMETPLSALGIQDGCRVMLIGKKNSPQEEVELKKLKHLEKSVEKIADQLEELNKELTGIQQGFLPKDLQAEALCKLDRRVKATIEQFMKILEEIDTLILPENFKDSRLKDKGLVKKVQAFLAECDTVEQNICQETERLQSTNFALAE [chain 1 R193D] |
